From patent publication US20110129459A1 (Chugai, published 2011)

Key:
[1] = biological target: T1, mmh (human/mouse chimeric NR10 extracellular domain, His/Myc tagged) (human/mouse chimera); test: Western blotting, 0.5 µg antigen per lane
T1 construct: C-terminal His-Myc tag
T1 chain: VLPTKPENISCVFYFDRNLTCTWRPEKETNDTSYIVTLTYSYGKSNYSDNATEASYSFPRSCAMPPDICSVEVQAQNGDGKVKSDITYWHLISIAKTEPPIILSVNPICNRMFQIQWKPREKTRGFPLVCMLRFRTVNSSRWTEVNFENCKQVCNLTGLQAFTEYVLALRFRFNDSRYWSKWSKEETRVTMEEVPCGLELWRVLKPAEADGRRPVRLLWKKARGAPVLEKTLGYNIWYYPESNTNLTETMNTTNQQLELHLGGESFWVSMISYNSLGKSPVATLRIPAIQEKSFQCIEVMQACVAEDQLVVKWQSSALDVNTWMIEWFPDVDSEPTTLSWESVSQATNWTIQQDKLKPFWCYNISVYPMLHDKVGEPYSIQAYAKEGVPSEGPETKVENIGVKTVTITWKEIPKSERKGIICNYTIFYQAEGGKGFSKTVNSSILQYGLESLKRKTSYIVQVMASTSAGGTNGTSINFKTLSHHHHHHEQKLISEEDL
Protocol: (§1) Each of the prepared human/mouse wild-type and chimeric antigens was electrophoresed at 0.5 μg/lane on three 4-20% polyacrylamide gels (Daiichi Pure Chemicals Co.). The proteins were electro-transferred onto PVDF membranes (Millipore) in a semi-dry blotting apparatus, and the membranes were blocked with TBS containing 5% skim milk. One membrane was incubated with 5 μg/ml of H44M58L17 (detection system for humanized anti-human NR10 antibody); another with 5 μg/ml of ND41 (detection system for mouse anti-human NR10 antibody); and the other one with anti-Myc antibody (SantaCruz, Cat.#sc-789) 500-times diluted with TBS containing 5% skim milk (detection system for Myc tag) at room temperature for one hour.
(§2) After washing three times with TBS containing 0.05% Tween™ 20, the secondary antibodies were incubated with the membranes. Alkaline phosphatase-labeled goat anti-human IgGγ (BIOSOURCE, Cat. #AHI0305) was used to detect humanized anti-human NR10 antibody; alkaline phosphatase-labeled goat anti-mouse IgG (SantaCruz, Cat. #sc-2008) was used to detect mouse anti-human NR10 antibody; and alkaline phosphatase-labeled goat anti-rabbit IgG (SantaCruz, Cat. #sc-2057) was used to detect Myc tag. The reaction was carried out at room temperature for one hour. […]

[2] = biological target: T2, mhh (human/mouse chimeric NR10 extracellular domain, His/Myc tagged) (human/mouse chimera); test: Western blot of purified His/Myc-tagged NR10-ECD probed with H44M58L17, detected with AP-labeled goat anti-human IgG
T2 construct: C-terminal His-Myc tag
T2 chain: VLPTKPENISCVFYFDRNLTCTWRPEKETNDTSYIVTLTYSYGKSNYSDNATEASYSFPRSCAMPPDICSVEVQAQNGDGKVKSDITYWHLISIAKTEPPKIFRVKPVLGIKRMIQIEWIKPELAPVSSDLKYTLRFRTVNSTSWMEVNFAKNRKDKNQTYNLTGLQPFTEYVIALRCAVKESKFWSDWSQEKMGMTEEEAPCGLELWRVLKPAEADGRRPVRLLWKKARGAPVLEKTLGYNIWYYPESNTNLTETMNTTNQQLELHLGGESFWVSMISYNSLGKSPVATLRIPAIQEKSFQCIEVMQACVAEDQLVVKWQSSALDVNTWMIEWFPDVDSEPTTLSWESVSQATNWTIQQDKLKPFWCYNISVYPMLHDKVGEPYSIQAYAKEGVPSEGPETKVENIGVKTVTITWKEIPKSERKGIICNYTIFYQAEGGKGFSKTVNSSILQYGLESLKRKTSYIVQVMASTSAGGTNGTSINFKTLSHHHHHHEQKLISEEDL
Protocol: as §1, §2

[3] = biological target: T3, rhNR10 (recombinant human NR10) (human, UniProt Q8NI17 20-519, limits assumed); test: SPR, Biacore T100; antibody captured on Protein A, rhNR10 as analyte
T3 construct: also called IL-31 receptor; IL31RA
T3 sequence: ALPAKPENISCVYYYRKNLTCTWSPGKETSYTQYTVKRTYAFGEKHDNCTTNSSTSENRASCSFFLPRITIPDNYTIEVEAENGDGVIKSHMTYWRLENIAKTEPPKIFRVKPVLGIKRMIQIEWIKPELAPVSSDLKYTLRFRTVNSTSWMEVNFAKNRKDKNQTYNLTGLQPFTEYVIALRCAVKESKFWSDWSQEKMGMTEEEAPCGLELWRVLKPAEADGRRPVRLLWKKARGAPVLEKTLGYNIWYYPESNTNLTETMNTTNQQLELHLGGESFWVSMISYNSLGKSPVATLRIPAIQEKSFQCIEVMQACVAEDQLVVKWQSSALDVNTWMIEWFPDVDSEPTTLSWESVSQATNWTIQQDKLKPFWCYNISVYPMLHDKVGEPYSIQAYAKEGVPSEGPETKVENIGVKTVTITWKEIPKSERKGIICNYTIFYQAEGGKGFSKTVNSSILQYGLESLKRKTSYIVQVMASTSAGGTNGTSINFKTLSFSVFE
Protocol: Kinetic analysis of the antigen-antibody reaction was carried out using Biacore T100 (GE Healthcare Biosciences). The antigen-antibody interaction was measured by immobilizing rec-Protein A (hereinafter Protein A) (ZYMED) onto a sensor chip, capturing an antibody on the immobilized Protein A, and then reacting the antigen as an analyte. Various concentrations of rhNR10 were used as the antigen. The kinetic parameters, association rate constant kₐ (1/Ms) and dissociation rate constant kd (1/s), were calculated from the sensorgrams obtained by the measurement. Then, KD (M) was determined based on the rate constants. Each parameter was determined using Biacore T100 Evaluation Software version 1.1 (GE Healthcare Biosciences).
The running buffer used was HBS-EP+. Each antibody was prepared at 0.25 μg/ml, or prepared so that about 100 RU would bind to Protein A. rhNR10 used as an analyte was prepared at 0, 38.5, 77.0, and 154 nM, or at 0, 19.25, and 77.01 nM using HBS-EP+. In the measurement, first, the antibody solution was captured on Protein A, and an analyte solution was reacted at a flow rate of 20 μL/min for three minutes. Then, the solution was switched to HBS-EP+, and the dissociation phase was measured for five minutes. After measurement of the dissociation phase, the sensor chip was regenerated by washing with 10 mM glycine-HCl (pH 1.5). The obtained sensorgrams were kinetically analyzed using the Biacore-specific data analysis software, Biacore T100 Evaluation Software Version 1.1.

binding result [1]: no binding (tested: 5 µg/ml)
binding result [2]: no binding
Kd [3]: 1.2 nM
koff [3]: 0.00072 s⁻¹
kon [3]: 610000 M⁻¹ s⁻¹
B1: H44L17 (H44-M58 / L17) (antibody, V domains shown)
VH: QVQLVQSGAEVKKPGASVKVSCKASGYTFTGYIMNWVRQAPGQGLEWMGLINPYNGGTDYNPQFQDRVTITADKSTSTAYMELSSLRSEDTAVYYCARDGYDDGPYTLETWGQGTLVTVSS
VL: DIQMTQSPSSLSASVGDRVTITCQASEDIYSFVAWYQQKPGKAPKLLIYNAQTEAQGVPSRFSGSGSGTDFTLTISSLQPEDFATYYCQHHYDSPLTFGGGTKVEIKR
notes: also called humanized anti-human NR10 antibody
